# Results: US20020035733A1 (AREXIS, published 2002)
# Molecular target: insulin (125I-insulin mixed with unlabeled insulin)
# Test: cell-based or functional assay
row,Binder,"insulin degrading activity in intact COS-1 cells, percentage of wild type activity"
1,rat insulin degradation enzyme (IDE) variant A890V (valine for alanine at amino acid 890) (enzyme) MRNGLVWLLHPALPSTLHSILGARPPPVKRLCGFPKQIYSTMNNPAIQRIEDHIVKSPEDKREYRGLELANGIKVLLISDPTTDKSSAALDVHIGSLSDPPNIPGLSHFCEHMLFLGTKKYPKENEYSQFLSEHAGSSNAFTSGEHTNYYFDVSHEHLEGALDRFAQFFLCPLFDASCKDREVNAVDSEHEKNVMNDAWRLFQLEKATGNPKHPFSKFGTGNKYTLETRPNQEGIDVREELLKFHSTYYSSNLMAICVLGRESLDDLTNLVVKLFSEVENKNVPLPEFPEHPFQEEHLKQLYKIVPIKDIRNLYVTFPIPDLQQYYKSNPGHYLGHLIGHEGPGSLLSELKSKGWVNTLVGGQKEGARGFMFFIINVDLTEEGLLHVEDIILHMFQYIQKLRAEGPQEWVFQECKDLNAVAFRFKDKERPRGYTSKIAGKLHYYPLNGVLTAEYLLEEFRPDLIDMVLDKLRPENVRVAIVSKSFEGKTDRTEQWYGTQYKQEAIPEDVIQKWQNADLNGKFKLPTKNEFIPTNFEILALEKDATPYPALIKDTAMSKLWFKQDDKFFLPKACLNFEFFSPFAYVDPLHCNMAYLYLELLKDSLNEYAYAAELAGLSYDLQNTIYGMYLSVKGYNDKQPILLKKITEKMATFEIDKKRFEIIKEAYMRSLNNFRAEQPHQHAMYYLRLLMTEVAWTKDELKEALDDVTLPRLKAFIPQLLSRLHIEALLHGNITKQAALGVMQMVEDTLIEHAHTKPLLPSQLVRYREVQLPDRGWFVYQRRNEVHNNCGIEIYYQTDMQSTSENMFLELFCQIISEPCFNTLRTKEQLGYIVFSGPRRANGIQGLRFIIQSEKPPHYLESRVEAFLITMEKAIEDMTEEAFQKHIQALVIRRLDKPKKLSAECAKYWGEIISQQYNYDRDNIEVAYLKTLSKDDIIKFYKEMLAVDAPRRHKVSVHVLAREMDSCPVVGEFPSQNDINLSEAPPLPQPEVIHNMTEFKRGLPLFPLVKPHINFMAAKL,95 % of wild type activity
2,"rat insulin degradation enzyme (IDE), GK allele containing both H18R and A890V (enzyme) MRNGLVWLLHPALPSTLRSILGARPPPVKRLCGFPKQIYSTMNNPAIQRIEDHIVKSPEDKREYRGLELANGIKVLLISDPTTDKSSAALDVHIGSLSDPPNIPGLSHFCEHMLFLGTKKYPKENEYSQFLSEHAGSSNAFTSGEHTNYYFDVSHEHLEGALDRFAQFFLCPLFDASCKDREVNAVDSEHEKNVMNDAWRLFQLEKATGNPKHPFSKFGTGNKYTLETRPNQEGIDVREELLKFHSTYYSSNLMAICVLGRESLDDLTNLVVKLFSEVENKNVPLPEFPEHPFQEEHLKQLYKIVPIKDIRNLYVTFPIPDLQQYYKSNPGHYLGHLIGHEGPGSLLSELKSKGWVNTLVGGQKEGARGFMFFIINVDLTEEGLLHVEDIILHMFQYIQKLRAEGPQEWVFQECKDLNAVAFRFKDKERPRGYTSKIAGKLHYYPLNGVLTAEYLLEEFRPDLIDMVLDKLRPENVRVAIVSKSFEGKTDRTEQWYGTQYKQEAIPEDVIQKWQNADLNGKFKLPTKNEFIPTNFEILALEKDATPYPALIKDTAMSKLWFKQDDKFFLPKACLNFEFFSPFAYVDPLHCNMAYLYLELLKDSLNEYAYAAELAGLSYDLQNTIYGMYLSVKGYNDKQPILLKKITEKMATFEIDKKRFEIIKEAYMRSLNNFRAEQPHQHAMYYLRLLMTEVAWTKDELKEALDDVTLPRLKAFIPQLLSRLHIEALLHGNITKQAALGVMQMVEDTLIEHAHTKPLLPSQLVRYREVQLPDRGWFVYQRRNEVHNNCGIEIYYQTDMQSTSENMFLELFCQIISEPCFNTLRTKEQLGYIVFSGPRRANGIQGLRFIIQSEKPPHYLESRVEAFLITMEKAIEDMTEEAFQKHIQALVIRRLDKPKKLSAECAKYWGEIISQQYNYDRDNIEVAYLKTLSKDDIIKFYKEMLAVDAPRRHKVSVHVLAREMDSCPVVGEFPSQNDINLSEAPPLPQPEVIHNMTEFKRGLPLFPLVKPHINFMAAKL",69 % of wild type activity
3,rat insulin degradation enzyme (IDE) variant H18R (arginine for histidine at amino acid 18) (enzyme) MRNGLVWLLHPALPSTLRSILGARPPPVKRLCGFPKQIYSTMNNPAIQRIEDHIVKSPEDKREYRGLELANGIKVLLISDPTTDKSSAALDVHIGSLSDPPNIPGLSHFCEHMLFLGTKKYPKENEYSQFLSEHAGSSNAFTSGEHTNYYFDVSHEHLEGALDRFAQFFLCPLFDASCKDREVNAVDSEHEKNVMNDAWRLFQLEKATGNPKHPFSKFGTGNKYTLETRPNQEGIDVREELLKFHSTYYSSNLMAICVLGRESLDDLTNLVVKLFSEVENKNVPLPEFPEHPFQEEHLKQLYKIVPIKDIRNLYVTFPIPDLQQYYKSNPGHYLGHLIGHEGPGSLLSELKSKGWVNTLVGGQKEGARGFMFFIINVDLTEEGLLHVEDIILHMFQYIQKLRAEGPQEWVFQECKDLNAVAFRFKDKERPRGYTSKIAGKLHYYPLNGVLTAEYLLEEFRPDLIDMVLDKLRPENVRVAIVSKSFEGKTDRTEQWYGTQYKQEAIPEDVIQKWQNADLNGKFKLPTKNEFIPTNFEILALEKDATPYPALIKDTAMSKLWFKQDDKFFLPKACLNFEFFSPFAYVDPLHCNMAYLYLELLKDSLNEYAYAAELAGLSYDLQNTIYGMYLSVKGYNDKQPILLKKITEKMATFEIDKKRFEIIKEAYMRSLNNFRAEQPHQHAMYYLRLLMTEVAWTKDELKEALDDVTLPRLKAFIPQLLSRLHIEALLHGNITKQAALGVMQMVEDTLIEHAHTKPLLPSQLVRYREVQLPDRGWFVYQRRNEVHNNCGIEIYYQTDMQSTSENMFLELFCQIISEPCFNTLRTKEQLGYIVFSGPRRANGIQGLRFIIQSEKPPHYLESRVEAFLITMEKAIEDMTEEAFQKHIQALAIRRLDKPKKLSAECAKYWGEIISQQYNYDRDNIEVAYLKTLSKDDIIKFYKEMLAVDAPRRHKVSVHVLAREMDSCPVVGEFPSQNDINLSEAPPLPQPEVIHNMTEFKRGLPLFPLVKPHINFMAAKL,89 % of wild type activity
